Experiment [1] has as its target T1, Mesyl-dFPR-ACC.
T1 sequence (peptide, N-terminal mesyl; D-Phe at position 1 (dF); C-terminal ACC fluorophore): FPR

In experiment [2] the target is Factor X (Homo sapiens (Human)) (UniProt P00742).

Positions count from the first letter of the chain named. Numbers in names are those of the source.

Factor X (Homo sapiens (Human)), sequence (P00742 41-488 limits assumed): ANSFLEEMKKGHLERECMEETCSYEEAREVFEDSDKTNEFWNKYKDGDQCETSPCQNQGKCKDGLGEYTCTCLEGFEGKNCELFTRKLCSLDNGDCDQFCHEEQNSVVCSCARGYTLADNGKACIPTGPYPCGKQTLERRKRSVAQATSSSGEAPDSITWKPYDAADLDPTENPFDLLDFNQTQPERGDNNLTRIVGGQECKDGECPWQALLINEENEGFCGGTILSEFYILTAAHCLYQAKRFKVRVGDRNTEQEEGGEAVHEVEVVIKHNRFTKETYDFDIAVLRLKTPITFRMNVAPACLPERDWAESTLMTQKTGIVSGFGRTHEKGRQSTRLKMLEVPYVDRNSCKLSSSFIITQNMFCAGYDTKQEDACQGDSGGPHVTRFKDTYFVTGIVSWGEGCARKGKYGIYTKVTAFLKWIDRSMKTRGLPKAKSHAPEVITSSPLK

B1: T239I/Q286R-FVIIa (enzyme)
chain: ANAFLEELRPGSLERECKEEQCSFEEAREIFKDAERTKLFWISYSDGDQCASSPCQNGGSCKDQLQSYICFCLPAFEGRNCETHKDDQLICVNENGGCEQYCSDHTGTKRSCRCHEGYSLLADGVSCTPTVEYPCGKIPILEKRNASKPQGRIVGGKVCPKGECPWQVLLLVNGAQLCGGTLINTIWVVSAAHCFDKIKNWRNLIAVLGEHDLSEHDGDEQSRRVAQVIIPSTYVPGTINHDIALLRLHQPVVLTDHVVPLCLPERTFSERTLAFVRFSLVSGWGRLLDRGATALELMVLNVPRLMTQDCLQQSRKVGDSPNITEYMFCAGYSDGSKDSCKGDSGGPHATHYRGTWYLTGIVSWGQGCATVGHFGVYTRVSQYIEWLQKLMRSEPRPGVLLRAPFP
The molecule B1 gave an Activity (µmol/sec/µmol), specific activity for mesyl-dFPR-ACC (µmol/sec/µmol) in experiment [1] of 0.88. Besides, in experiment [2], the kcat/KM (M^-1s^-1), TF-dependent assay is 5.79e+07 M⁻¹ s⁻¹ and the kcat/KM, TF-independent assay was 4.6 M⁻¹ s⁻¹.

B2: S222A/H257S/Q286R/M298Q-FVIIa (enzyme)
chain: B1 chain with S222A, I239T, H257S, M298Q
Molecule B2 displayed an Activity (µmol/sec/µmol), specific activity for mesyl-dFPR-ACC (µmol/sec/µmol) in experiment [1] of 1.77. The kcat/KM (M^-1s^-1), TF-dependent assay in experiment [2] stood at 1.58e+08 M⁻¹ s⁻¹.

B3: T239I/Q286R/M298Q-FVIIa (enzyme)
chain: B1 chain with M298Q
In experiment [1], B3 gave an Activity (µmol/sec/µmol), specific activity for mesyl-dFPR-ACC (µmol/sec/µmol) of 1.37. Also, in experiment [2], the kcat/KM (M^-1s^-1), TF-dependent assay is 1.13e+08 M⁻¹ s⁻¹ and the kcat/KM, TF-independent assay came out at 11.3 M⁻¹ s⁻¹.

B4: S222A/T239I-FVIIa (enzyme)
chain: B1 chain with S222A, R286Q
In experiment [1], B4 came in with an Activity (µmol/sec/µmol), specific activity for mesyl-dFPR-ACC (µmol/sec/µmol) of 1.36. In experiment [2], the kcat/KM (M^-1s^-1), TF-dependent assay was 3.05e+07 M⁻¹ s⁻¹ and the kcat/KM, TF-independent assay is 1.7 M⁻¹ s⁻¹.

B5: H257S/Q286R/M298Q-FVIIa (enzyme)
chain: B1 chain with I239T, H257S, M298Q
In experiment [1], B5 returned an Activity (µmol/sec/µmol), specific activity for mesyl-dFPR-ACC (µmol/sec/µmol) of 1.85. Besides, in experiment [2], the kcat/KM (M^-1s^-1), TF-dependent assay was 1.4e+08 M⁻¹ s⁻¹ and the kcat/KM, TF-independent assay was 27.4 M⁻¹ s⁻¹.

B6: T239I/Q286R/M298Q/H373F-FVIIa (enzyme)
chain: B1 chain with M298Q, H373F
In experiment [1], B6 yielded an Activity (µmol/sec/µmol), specific activity for mesyl-dFPR-ACC (µmol/sec/µmol) of 1.59. In addition, in experiment [2], the kcat/KM (M^-1s^-1), TF-dependent assay was 1.08e+08 M⁻¹ s⁻¹ and the kcat/KM, TF-independent assay was determined as 13.1 M⁻¹ s⁻¹.

B7: T239I/Q286R/H373F-FVIIa (enzyme)
chain: B1 chain with H373F
With B7, the Activity (µmol/sec/µmol), specific activity for mesyl-dFPR-ACC (µmol/sec/µmol) in experiment [1] was 1.24. Further, the kcat/KM (M^-1s^-1), TF-dependent assay in experiment [2] came to 6.18e+07 M⁻¹ s⁻¹.

B8: S222A/Q286R/M298Q-FVIIa (enzyme)
chain: B1 chain with S222A, I239T, M298Q
On to B8, for which the Activity (µmol/sec/µmol), specific activity for mesyl-dFPR-ACC (µmol/sec/µmol) in experiment [1] stood at 1.9. In experiment [2], the kcat/KM (M^-1s^-1), TF-dependent assay was 1.29e+08 M⁻¹ s⁻¹ and the kcat/KM, TF-independent assay was 253 M⁻¹ s⁻¹.

B9: H257S/Q286R/M298Q/H373F-FVIIa (enzyme)
chain: B1 chain with I239T, H257S, M298Q, H373F
In experiment [1], B9 showed an Activity (µmol/sec/µmol), specific activity for mesyl-dFPR-ACC (µmol/sec/µmol) of 2.32. In experiment [2], the kcat/KM (M^-1s^-1), TF-dependent assay turned out to be 1.52e+08 M⁻¹ s⁻¹ and the kcat/KM, TF-independent assay came out at 30.4 M⁻¹ s⁻¹.

B10: S222A/T239I/H257A/Q286R/M298Q-FVIIa (enzyme)
chain: B1 chain with S222A, H257A, M298Q
In turn, B10 showed an Activity (µmol/sec/µmol), specific activity for mesyl-dFPR-ACC (µmol/sec/µmol) in experiment [1] of 1.41. In experiment [2], the kcat/KM (M^-1s^-1), TF-dependent assay amounted to 1.14e+08 M⁻¹ s⁻¹ and the kcat/KM, TF-independent assay turned out to be 51.6 M⁻¹ s⁻¹.

The values are drawn from patent publication US20090291890A1 (published 2009).
